According to patent US20190153106A1 (TRUSTEES OF BOSTON UNIVERSITY, published 2019):
Several values for one entry are separate records, joined by “and”; a condition that tells them apart may be missing. Equal values may be shown once. Read-outs that look alike come from different tables or passages of the source.

T1: rat DEspR (rat)
T1 chain: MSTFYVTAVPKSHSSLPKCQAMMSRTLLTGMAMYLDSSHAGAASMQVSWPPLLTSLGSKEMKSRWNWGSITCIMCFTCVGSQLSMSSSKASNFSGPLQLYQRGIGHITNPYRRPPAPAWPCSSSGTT

T2: antigenic peptide (AP) EMKSRWNWGS (human/monkey/rat DEspR epitope)
T2 construct: also called 6G8G7 antigenic peptide; partial peptide
T2 peptide: EMKSRWNWGS

B1: 7C5B2 mouse anti-human DEspR monoclonal antibody (antibody, V domains shown)
VH: QVQLKESGPGLVAPSQSLSITCTVSGFSLKSYAVSWVRQPPGKGLEWLGVIWGDGSTDYHSALISRLSISKDNSKSQFFLRLNSLQTDDTATYYCARGTGTGFAYWGQGTLVTVSA
VL: DVVMTQTPLSLPVSLGDQASISCRSSQSLVHSNGNTYLHWYLQKPGQSPKLLIYKVSNRFSGVPDRFSGSGSGTDFTLKISRVEAEDLGIYFCSQCTHIPWTFGGGTNLEIK
notes: Mouse hybridoma antibody raised against the 9-aa N-terminal peptide of human DEspR; IgG2b was used as its isotype control; AF568-labelled in the FACS and internalization assays; also called 7C5-murine monoclonal antibody; HV2KV2
B2: 6g8^IgG4 humab1 (6g8g7-derived IgG4 humanized monoclonal antibody 1) (antibody)
heavy: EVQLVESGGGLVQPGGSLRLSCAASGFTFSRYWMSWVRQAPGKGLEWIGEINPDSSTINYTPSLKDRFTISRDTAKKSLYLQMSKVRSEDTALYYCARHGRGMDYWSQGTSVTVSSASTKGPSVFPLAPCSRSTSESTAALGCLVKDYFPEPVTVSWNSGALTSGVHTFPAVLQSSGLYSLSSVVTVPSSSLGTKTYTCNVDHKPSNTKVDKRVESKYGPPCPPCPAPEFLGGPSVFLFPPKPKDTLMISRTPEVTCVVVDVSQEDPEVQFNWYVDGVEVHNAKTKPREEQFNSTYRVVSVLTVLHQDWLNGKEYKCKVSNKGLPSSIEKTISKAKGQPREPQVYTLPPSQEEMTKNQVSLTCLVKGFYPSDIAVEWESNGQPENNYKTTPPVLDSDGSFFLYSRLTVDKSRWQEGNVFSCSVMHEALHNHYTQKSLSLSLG
light: DIVLTQSPDILSVSLGERATVNCKASQNVDSNVAWYQQKPGHPPKLLIYSASYRYSRVPDRISGSGSGTDFTLTISNLQAEDVAVYYCQQYHSYPLLAFGAGTKLELKRTVAAPSVFIFPPSDEQLKSGTASVVCLLNNFYPREAKVQWKVDNALQSGNSQESVTEQDSKDSTYSLSSTLTLSKADYEKHKVYACEVTHQGLSSPVTKSFNRGEC
notes: Hinge-stabilized (S228P) human IgG4 / human kappa, transiently expressed in HEK293; AF568-labelled in the FACS assays; also called 6G8IgG4 humanized monoclonal antibody 1 (mAb 1); lead candidate humab
B3: 6g8^IgG1 humab1 (IgG1 6G8G7 humanized monoclonal antibody) (antibody)
heavy: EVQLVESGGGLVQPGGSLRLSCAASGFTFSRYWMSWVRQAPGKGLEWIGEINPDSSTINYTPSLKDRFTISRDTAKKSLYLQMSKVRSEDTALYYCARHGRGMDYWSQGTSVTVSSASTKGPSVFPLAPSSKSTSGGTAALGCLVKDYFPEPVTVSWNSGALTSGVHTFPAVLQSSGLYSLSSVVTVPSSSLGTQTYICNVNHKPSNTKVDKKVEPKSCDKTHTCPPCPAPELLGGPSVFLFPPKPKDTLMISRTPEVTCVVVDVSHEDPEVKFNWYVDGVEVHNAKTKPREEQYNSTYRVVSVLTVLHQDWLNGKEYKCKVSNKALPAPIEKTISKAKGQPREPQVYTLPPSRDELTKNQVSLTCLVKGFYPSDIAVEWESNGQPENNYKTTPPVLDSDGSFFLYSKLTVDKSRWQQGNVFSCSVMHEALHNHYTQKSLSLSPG
light: B2 light
notes: Human IgG1 / human kappa
B4: 6G8G7 murine anti-DEspR monoclonal antibody (antibody, V domains shown)
VH: EVQLQESGGGLVQPGGSLKLSCAASGFDFSRYWMSWVRQAPGKGLEWIGEINPDSSTINYTPSLKDKFIISRDTAKKTLYLQMSKVRSEDTALYYCARHGRGMDYWSQGTSVTVSS
VL: DIVLTQTNQIMSASVGDRVSVTCKASQNVDSNVAWYQQKPGHSPKALIYSASYRYSRVPDRITGSGSGTDFTLTITNVQSKDLADYFCQQYHSYPLLAFGAGTKLELKR
notes: Mouse hybridoma antibody, detected with anti-mouse IgG2b; also called 6g8 mumab; 6g8-mumab
B5: human DEspR (dual endothelin-1/VEGF signal peptide receptor) (receptor)
chain: MTMFKGSNEMKSRWNWGSITCIICFTCVGSQLSMSSSKASNFSGPLQLYQRELEIFIVLTDVPNYRLIKENSHLHTTIVDQGRTV
modifications: glycosylated (~17 kDa band, PNGase-sensitive)
notes: On intact Panc1 cells / Panc1 CSCs in the FACS assays and on HUVECs in the angiogenesis assays; In pulldowns and Western blots it came from membrane proteins of U87 CSCs and hDEspR-Cos1 permanent transfectants; also called hDEspR; DEAR

Tests used:
[1] = target: B5; test: cell-based or functional assay
[2] = target: B5; test: saturation binding by FACS, AF568-labelled mAb on DEspR+ Panc1 cells
Description: (§1) Saturation binding curves of monoclonal antibody (mAb) binding to DEspR on Panc1 CSCs. […] Specific binding was determined by FACS analysis using 100,000 cells in 0.25 ml containing increasing concentrations of mAbs. Incubations were done at 4° C. for 20 min and immediately subjected to FACS analysis on a BDTM LSRII Flow cytometer. Each data point was performed in duplicate.
Fully human VH5/VK1 has a slightly better Kd than VH3/VK2 fully human composite antibodies. […] (FIG. 16).

[3] = target: B5; test: FACS saturation binding of AF568-labelled mAb to Panc1 CSCs, 4 °C, 20 min
Description: as §1

[4] = target: B5; test: FACS displacement of AF568-7C5B2 (10 µg/ml) from Panc1 CSCs; peptide at 100x molar excess
Description: 50,000 cells were reacted with 10 µg/ml AF568-labelled 7C5B2 monoclonal antibody (mAb) at 4° C. for 20 min in the absence or presence of the different peptides at 100× molar excess. Samples were immediately subjected to FACS analysis for quantification of DEspR+ cells. Samples were run in duplicates. AngII, angiotensinII; ET1, endothelin-1 (DEspR ligand); sp17, VEGFsp17 (DEspR ligand); sp26, VEGFsp26 (DEspR ligand). Data presented as Mean±SD.

[5] = target: T1, rat DEspR; test: cell-based or functional assay
[6] = target: B5; test: cell-based or functional assay; remark: listed apart in the source
[7] = target: T2, antigenic peptide (AP) EMKSRWNWGS; test: ELISA on antigenic peptide EMKSRWNWGS
Description: Next, the EC50 of binding to the antigenic peptide was determined by ELISA, as shown in FIGS. 35A-35B, comparing two IgG4 6g8g7 humanized antibody candidates (including humab1 comprising SEQ ID NOs: 63 and 65 and humab2 comprising SEQ ID NO: 65 with substitutions in SEQ ID NO: 26 at Kabat residues 83V and 85Y to give 83D and 85Y), and the IgG1 6G8G7humanized monoclonal antibody (comprising SEQ ID NOs: 61 and 65), and 6G8G7 murine monoclonal antibody (“6g8 mumab”).
(§2) Neutrophils (50000/well) were incubated in the absence or presence of mAbs at 37° C. × 4 hrs and live cells counted by using Trypan blue. HUVEC-dependent angiogenesis (20,000 cells/well) was performed as described in the presence or absence of mAbs. Number of polygons and number of branch points were determined after 14 hrs of incubation at 37° C. ND, not done, indeterminate, value greater than upper limit of max dose used in these experiments.

[8] = target: B5; test: FACS, AF568-labelled mAb on intact DEspR+ human cells (Panc1), 4°C
Description: Binding was determined by FACS analysis.
as §2

[9] = target: T2, antigenic peptide (AP) EMKSRWNWGS; test: ELISA on antigenic peptide EMKSRWNWGS
[10] = target: T3, galectin-1 (human, UniProt P09382 2-135); test: Western blot of the DEspR complex
T3 construct: also called gal1; recombinant galectin-1 protein
T3 sequence (P09382 2-135 limits assumed): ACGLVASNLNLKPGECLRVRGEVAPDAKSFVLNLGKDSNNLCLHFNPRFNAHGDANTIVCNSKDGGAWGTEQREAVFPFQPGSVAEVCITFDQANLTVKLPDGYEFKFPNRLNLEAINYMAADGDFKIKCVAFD

Human Angiogenesis assay (HUVECs): branch points, IC50 [6] [mg/L] | Human Angiogenesis assay (HUVECs): polygons, IC50 [6] [mg/L] | Bmax (A450) [7] [A450] | EC50 [7] [mg/L] | Bmax (% + cells) [8] [% + cells] | EC50 [8] | Binder | Rat Neutrophil survival, IC50 [5] [mg/L] | other results
– | – | – | – | – | – | MNFLLSWVHWSLALLLY (ligand) [VEGFsp17 (VEGF signal peptide 17)] | – | stimulation of HUVEC angiogenesis, EC50 based on total tube length [1]: 1.98 nM
– | – | – | – | – | – | B1 | – | Kd [2]: ~5.2 mg/L; Kd [3]: 5.2 mg/L
– | – | – | – | – | – | CSCSSLMDKECVYFCHLDIIW (ligand, UniProt P05305 53-73, looked up, also called ET1; ET-1) [endothelin-1] | – | binding result [4]: binds
4.3 | 2.6 | 2.62 | 11.7 | 31.5 | ~4.3 nM and 0.64 µg/mL | B2 | 1.16 | –
10.4 | 9.1 | 3.09 | 13.4 | 21.6 | 1.3 µg/mL and 42.9 nM | B3 | 6.98 | –
> 30 | > 30 | 6.36 | 2.96 | 35.6 | 5.39 µg/mL and 178 nM | B4 | > 30 | EC50 [9]: 4.96 mg/L; Kd [2]: ~5.2 mg/L; Kd [3]: 5.2 mg/L
– | – | – | – | – | – | B5 | – | binding result [10]: binds
– | – | – | – | – | – | MNFLLSWVHWSLALLLYLHHAKWSQA (ligand) [VEGFsp26 (VEGF signal peptide 26)] | – | inhibition of HUVEC angiogenesis, IC50 based on total tube length [1]: 1.9 nM
